Measured values as given in article PMC10681723, “The N-terminus of Spt16 anchors FACT to MCM2–7 for parental histone recycling” (Nucleic Acids Research, 2023).

Molecular target: Recombinant Saccharomyces cerevisiae histone H3/H4 (Saccharomyces cerevisiae, UniProt P61830 1-136; P02309 1-103)
Assay: pull-down; 2 μg GST-Mcm2HBD on Glutathione Sepharose; 0.1, 0.2 and 0.4 μg histone H3/H4 in 0.4 ml buffer A150 (25 mM Tris pH 7.5, 1 mM EDTA, 0.01% NP-40, 150 mM NaCl), 6 h, 4°C; CBB staining
Conditions: both partners purified

B1: GST-tagged Mcm2HBD (residues 1–200) (domain or fragment, yeast, UniProt P29469 1-200, looked up)
chain: MSDNRRRRREEDDSDSENELPPSSPQQHFRGGMNPVSSPIGSPDMINPEGDDNEVDDVPDIDEVEEQMNEVDLMDDNMYEDYAADHNRDRYDPDQVDDREQQELSLSERRRIDAQLNERDRLLRNVAYIDDEDEEQEGAAQLDEMGLPVQRRRRRRQYEDLENSDDDLLSDMDIDPLREELTLESLSNVKANSYSEWITQ
notes: also called GST-Mcm2HBD; source: E. coli BL21(DE3) CodonPlus RIL, pGEX4T-1, purified (Glutathione Sepharose)
**Q.** Does B1 bind?
**A.** Result: binds
